The results in this text go back to patent publication US20230416357A1 (UCB, published 2023).

In test [1] the target is T1, Human IL22 (human, UniProt Q9GZX6 34-179).
T1 sequence: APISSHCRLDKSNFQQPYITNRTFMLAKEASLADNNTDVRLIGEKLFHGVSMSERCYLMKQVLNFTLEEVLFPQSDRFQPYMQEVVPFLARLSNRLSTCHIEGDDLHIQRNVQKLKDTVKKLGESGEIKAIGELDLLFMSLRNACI
Description: SPR Biacore T200; antibody captured on anti-human Fab (280 RU), IL22 injected at 20 nM.

In test [2] the target is T1, Human IL22. In words: SPR Biacore 8K; single experiment.
Test [3] deals with T1, Human IL22. Description: cell-based or functional assay.
In test [4] the target is T1, Human IL22. In words: cell-based or functional assay. The source holds these as a separate data set.
The target of test [5] is T1, Human IL22. In words: cell-based or functional assay. This is another data set of the same source.

Read-outs that look alike come from different tables or passages of the source. Some results are limits rather than exact numbers.

B1: 11041gL13gH14 Fab (Fab, V domains shown)
VH: EVQLVESGGGLVQPGGSLRLSCAVSGFSLSSYAMIWVRQAPGKGLEWIGIIDIEGSTYYASWAKGRFTISRDNSKNTVYLQMNSLRAEDTAVYYCARDRFVGVDIFDPWGQGTLVTVSS
VL: AVQLTQSPSSLSASVGDRVTITCQASEDIYTNLAWYQQKPGKAPKLLIYWASTLASGVPSRFSGSGSGTDFTLTISSLQPEDFATYYCQASVYGNAADSRYTFGGGTKVEIKR
notes: Humanized Fab; also called VR11041
Consider B1, for which the IL22 Binding at 20 nM (RU) in test [1] is 40 RU. The Kd in test [2] is under 0.1 nM. Also, the “IC50 (M), Geomean; COLO205 IL-10 release assay” value in test [3] was 4.27e-11 M. In test [4], the “IC50 (read off the curve), inhibition of IL-22-induced S100A7 release from human primary keratinocytes (NHEK)” value is about 10 nM.

B2: rabbit 11041 Fab (Fab, V domains shown)
VH: QSVEESGGRLVTPGTPLTLTCTVSGFSLSSYAMIWVRQAPGEGLEWIGIIDIDGSTYYASWAKGRFTISRTSTTVDLKITSPTTGDTATYFCARDRFVGVDIFDPWGPGTLVTVSS
VL: AVVLTQTASPVSAPVGGTVTIKCQASEDIYTNLAWYQQKPGQPPKLLIYWASTLASGVPSRFKGSGSGTEFTLTISDLECADAATYYCQACVYGNSADSRYTFGGGTEVVVK
For B2, the “IC50 (M), Geomean; COLO205 IL-10 release assay” value in test [5] is 5.68e-11 M.
